According to patent US20230031280A1, “GLP-2 FUSION POLYPEPTIDES AND USES FOR TREATING AND PREVENTING GASTROINTESTINAL CONDITIONS” (SHIRE-NPS PHARMACEUTICALS, INC., priority 2017, published 2023):
Each block holds one molecule with its values, some of them ahead of it.

Columns and labels:
[1] = Rat pharmacokinetics, intravenous dosing; assay type: in vivo, Sprague-Dawley rats; details: single dose 1 mg/ml
Method: (§1) In the rat, four pharmacokinetic parameters were measured for Gattex® (a GLP-2 peptide having the A2G mutation): CL, Vc, Vt and Q. The same pharmacokinetic parameters were also measured for GLP-2 peptibodies A, B, E, J, K, L, M, O and P. The data is shown in Table 4. Male Sprague-Dawley rats (3 animals per group) were injected intravenously either via a jugular vein or tail vein catheter. A singles dose of test article was injected at a dose level of 1 mg/ml. The test articles were formulated in PBS pH 7.4 at a concentration of Blood samples were taken 0.083, 0.167, 0.33, 0.5, 1, 2, 6, 24, 48, 72, 120, 168, 240, and 336 hours post dose. Blood samples were collected into heparinized tubes and centrifuged for 5 minutes at 2000 xg within 10 minutes of collection. 100 μL of plasma were transferred to a 1.5 ml Eppendorf tube containing 2 μL of 50 mM PMSF. After mixing, the plasma samples were frozen at −80° C. until analysis.

[2] = Rat pharmacokinetics, subcutaneous dosing; assay type: in vivo, Sprague-Dawley rats; details: single dose 1 mg/ml
Method: as §1, with “5.” for “4.”, “subcutaneously into the intra-scapular region of the animal.” for “intravenously either via a jugular vein or tail vein catheter.”, “[…]” for “1.5”, “mixing” for “mixing,”, “analysis. Meso Scale Discovery (MSD) ELISA was undertaken to assay for the concentration of the GLP-2 peptibodies.” for “analysis.”
A sandwich immunoassay was developed using either an anti-Human IgG1 Fc antibody or an anti-human albumin antibody for capture of the peptibody and a sulfotag labeled anti GLP-2 antibody for detection.

[3] = molecular target: T1, hFcRn (extracellular domain of the FcRN) (Homo sapiens, UniProt P55899); assay: FcRn binding by surface plasmon resonance (Biacore)
T1 construct: made in house
From the text: Binding to the Fc neonatal receptor (FcRN) allows for recycling of the molecules and leads to an extended in vivo serum half-life of the Fc fusion proteins. Recycling occurs as the molecules are passively taken into the cells and the pH of the endosomes is lower. That leads to binding of the Fc portion of the molecule to the FcRN. When the FcRN recycles back to the surface of the cell, the pH is then neutral and the protein is released back into the serum.
Binding to the extracellular domain of the FcRN was measured by surface plasmon resonance (SPR) using a Biacore system. Direct immobilization with FcRn was achieved via amine coupling of a CM5 chip with FcRn under the following conditions: • i) hFcRn (expressed and purified in house) is diluted in Acetate buffer pH 5.0 to 5 μg/mL. • ii) Immobilize 5 μg/mL of FcRn with target of 500 RU on CM5 chip in PBS pH 7.0 • iii) Final response 454 RU • iv) Running buffer: PBS-P+, pHed to 5.5
The kinetic binding study was done using the following protocol. Samples were diluted in PBS-P+ to 50, 25, 12.5, 6.25, 3.125, 1.56, 0.78, 0.39, 0 nM. The parameters were set as follows: • i) Association and Dissociation 300 s at Flow rate 30 μL/min • ii) Regeneration with 25 mM Tris, 150 mM NaCl pH 8.0 40 s at 60 μL/min
A measurement of the binding of the GLP-2 peptibodies to the Fc neonatal receptor (FcRN) was undertaken at pH 5.5 and pH 7.4.

[4] = NanoDSF melting temperature / thermal stability; assay type: physicochemical; details: for NanoDSF melting temperature 1: first transition; for NanoDSF melting temperature 2: second transition
Method: Each of the GLP-2 peptibodies was tested by determining melting temperature with nanodifferential scanning fluorimetry (NanoDSF). NanoDSF is a measurement of protein stability over a range of temperatures, with a temperature ramp employed. The stability of tryptophan is measured by fluorescence, as reflected in a ratio of fluorescence at 350 nm to fluorescence at 330 nm. From the assay, one or more melting temperatures are determined. Because a protein in a certain state is understood to have a melting temperature, the number of melting temperatures observed reflects the number of different states.
(§2) Stability analysis was then performed using SEC-MALS and NanoDSF. For SEC-MALS, a Sepax Zenix C-150 column was used. The mobile phase buffer was 1× PBS with a final concentration of 400 mM NaCl. The flow rate was 0.8 mL per minute. 20 micrograms of total protein was injected. For NanoDSF, 10 microliters of sample was used, without normalization of the samples.
as §2

[5] = SEC-MALS (Sepax Zenix C-150) peak distribution; assay type: physicochemical
Method: A SEC-MALS assay was performed to determine the primary state (main peak) and its molecular weight. […] The GLP-2 peptibody O (albumin fusion) eluted at a molecular weight indicative of a monomer.
as §2, §2

[6] = Table 7 (Example 6), 0.5 mg/mL sample
[7] = Table 7 (Example 6), 1.5 mg/mL sample
[8] = Table 7 (Example 6), 5 mg/mL sample
[9] = Table 7 (Example 6), 7.5 mg/mL sample

clearance ([1]; male, Sprague-Dawley, plasma): 1390 mL/h/kg | Vc [1]: 2,235 mL/kg | CL [2]: 51,649 mL/day/kg | Vc [2]: 1,794 mL/kg
Molecule: CC[C@H](C)[C@H](NC(=O)[C@H](Cc1ccccc1)NC(=O)[C@H](CC(=O)O)NC(=O)[C@H](CCCNC(=N)N)NC(=O)[C@H](C)NC(=O)[C@H](C)NC(=O)[C@H](CC(C)C)NC(=O)[C@H](CC(N)=O)NC(=O)[C@H](CC(=O)O)NC(=O)[C@H](CC(C)C)NC(=O)[C@@H](NC(=O)[C@@H](NC(=O)[C@H](CC(N)=O)NC(=O)[C@H](CCSC)NC(=O)[C@H](CCC(=O)O)NC(=O)[C@H](CC(=O)O)NC(=O)[C@H](CO)NC(=O)[C@H](Cc1ccccc1)NC(=O)[C@H](CO)NC(=O)CNC(=O)[C@H](CC(=O)O)NC(=O)CNC(=O)[C@@H](N)Cc1c[nH]cn1)[C@@H](C)O)[C@@H](C)CC)C(=O)N[C@@H](CC(N)=O)C(=O)N[C@@H](Cc1c[nH]c2ccccc12)C(=O)N[C@@H](CC(C)C)C(=O)N[C@H](C(=O)N[C@@H](CCC(N)=O)C(=O)N[C@H](C(=O)N[C@@H](CCCCN)C(=O)N[C@H](C(=O)N[C@H](C(=O)N[C@@H](CC(=O)O)C(=O)O)[C@@H](C)O)[C@@H](C)CC)[C@@H](C)O)[C@@H](C)CC [Gattex]

Kd ([3]; pH 5.5): 1.38 nM | FcRN KD at pH 7.4 [3]: No binding in range tested.
Molecule: GLP-2 peptibody A: GLP-2[A2G] fused without linker to IgG1 Fc (LALA); SEQ ID NO: 13
NanoDSF melting temperature 1 [4]: 1 = 67.0 °C | NanoDSF melting temperature 2 [4]: 2 = 80 °C | CL [1]: 2.37 mL/h/kg | Q [1]: 2.42 mL/h/kg | Vc [1]: 43 mL/kg | Vt [1]: 0.079 L/kg | CL [2]: 70.7 mL/day/kg | Q [2]: 3.25 mL/h/kg | Vc [2]: 109 mL/kg | Vt [2]: 0.081 L/kg | ka [2]: A (0.45 ka/day,

Molecule: GLP-2 peptibody B264: GLP-2[A2G]-GGGGG linker-IgG1 Fc (LALA) without C-terminal lysine; SEQ ID NO: 1
Thermal Stability (NanoDSF) 1 ([4]; Table 6, 0.5 mg/mL sample): 1 = 67.1 °C | Thermal Stability (NanoDSF) 2 ([4]; Table 6, 0.5 mg/mL sample): 2 = 75.2 °C | Thermal Stability (NanoDSF) 1 ([4]; Table 6, 1.5 mg/mL sample): 1 = 67.0 °C | Thermal Stability (NanoDSF) 2 ([4]; Table 6, 1.5 mg/mL sample): 2 = 74.8 °C | Thermal Stability (NanoDSF) 1 ([4]; Table 6, 5 mg/mL sample): 1 = 67.2 °C | Thermal Stability (NanoDSF) 2 ([4]; Table 6, 5 mg/mL sample): 2 = 75.0 °C | Thermal Stability (NanoDSF) 1 ([4]; Table 6, 11 mg/mL sample): 1 = 67.5 °C | Thermal Stability (NanoDSF) 2 ([4]; Table 6, 11 mg/mL sample): 2 = 74.7 °C | Thermal Stability (NanoDSF) 1 [4, 6]: 1 = 67.6 °C | Thermal Stability (NanoDSF) 2 [4, 6]: 2 = 80.2 °C | Thermal Stability (NanoDSF) 1 [4, 7]: 1 = 67.6 °C | Thermal Stability (NanoDSF) 2 [4, 7]: 2 = 80.2 °C | Thermal Stability (NanoDSF) 1 [4, 8]: 1 = 67.7 °C | Thermal Stability (NanoDSF) 2 [4, 8]: 2 = 80.7 °C | Thermal Stability (NanoDSF) 1 [4, 9]: 1 = 67.8 °C | Thermal Stability (NanoDSF) 2 [4, 9]: 2 = 80.4 °C | SEC LMW ([5]; Table 6, 0.5 mg/mL sample): 17.2% LMW | SEC Main Peak ([5]; Table 6, 0.5 mg/mL sample): 82.8% Main Peak | SEC HMW ([5]; Table 6, 1.5 mg/mL sample): 2.1% HMW | SEC LMW ([5]; Table 6, 1.5 mg/mL sample): 20.8% LMW | SEC Main Peak ([5]; Table 6, 1.5 mg/mL sample): 77.2% Main Peak | SEC HMW ([5]; Table 6, 5 mg/mL sample): 2% HMW | SEC LMW ([5]; Table 6, 5 mg/mL sample): 20.1% LMW | SEC Main Peak ([5]; Table 6, 5 mg/mL sample): 77.9% Main Peak | SEC HMW ([5]; Table 6, 11 mg/mL sample): 2.1% HMW | SEC LMW ([5]; Table 6, 11 mg/mL sample): 17.4% LMW | SEC Main Peak ([5]; Table 6, 11 mg/mL sample): 80.5% Main Peak | SEC HMW [5, 6]: 2.9% HMW | SEC LMW [5, 6]: 19.7% LMW | SEC Main Peak [5, 6]: 77.4% Main Peak | SEC LMW [5, 7]: 21.4% LMW | SEC Main Peak [5, 7]: 78.6% Main Peak | SEC LMW [5, 8]: 20.8% LMW | SEC Main Peak [5, 8]: 79.2% Main Peak | SEC LMW [5, 9]: 19.9% LMW | SEC Main Peak [5, 9]: 80% Main Peak

Kd ([3]; pH 5.5): 1.72 nM | FcRN KD at pH 7.4 [3]: No binding in range tested.
Molecule: GLP-2 peptibody L: GLP-2[A2G]-GGGGGGG linker-IgG1 Fc (LALA); SEQ ID NO: 22
NanoDSF melting temperature 1 [4]: 1 = 67.5 °C | NanoDSF melting temperature 2 [4]: 2 = 80 °C | SEC-MALS Zenix C-150 main peak [5]: 87.4% main peak, 148,000 g/mol | CL [1]: 2.8 mL/h/kg | Q [1]: 0.792 mL/h/kg | Vc [1]: 37.8 mL/kg | Vt [1]: 0.538 L/kg | CL [2]: 80.6 mL/day/kg | Vc [2]: 127 mL/kg | ka [2]: L (0.63 ka/day,

Kd ([3]; pH 5.5): 1.81 nM | FcRN KD at pH 7.4 [3]: No binding in range tested.
Molecule: GLP-2 peptibody M: GLP-2[A2G]-GGGGSGGGGS linker-IgG1 Fc (LALA); SEQ ID NO: 25
NanoDSF melting temperature 1 [4]: 1 = 67.3 °C | NanoDSF melting temperature 2 [4]: 2 = 79.9 °C | SEC-MALS Zenix C-150 main peak [5]: 81.4% main peak, 148,500 g/mol | CL [1]: 1.6 mL/h/kg | Q [1]: 7.62 mL/h/kg | Vc [1]: 12 mL/kg | Vt [1]: 0.0294 L/kg | CL [2]: 60.2 mL/day/kg | Vc [2]: 91.5 mL/kg | ka [2]: M (0.78 ka/day,

FcRN KD at pH 5.5 ([3]; pH 5.5): substantially higher KD | Kd ([3]; pH 5.5): 1370 nM | FcRN KD at pH 7.4 [3]: No binding in range tested.
Molecule: GLP-2 peptibody O: fusion protein between GLP-2, a linker, and amino acids 25-609 of human serum albumin; SEQ ID NO: 28
NanoDSF melting temperature 1 [4]: 1 = 57.6 °C | SEC-MALS Zenix C-150 main peak [5]: 89.5% main peak, 76,500 g/mol | CL [1]: 5.42 mL/h/kg | Q [1]: 57.5 mL/h/kg | Vc [1]: 43.2 mL/kg | Vt [1]: 0.054 L/kg | CL [2]: 742 mL/day/kg | Vc [2]: 565 mL/kg | ka [2]: O (1.26 ka/day,

Molecule: GLP-2 peptibody P: fusion of GLP-2, a linker that is also a GLP-2 sequence, and human serum albumin 25-609; SEQ ID NO: 30
CL [1]: 7.08 mL/h/kg | Q [1]: 29.5 mL/h/kg | Vc [1]: 38.4 mL/kg | Vt [1]: 0.0439 L/kg
